Results as given in patent US20250295737A1 (AstraZeneca / MedImmune, published 2025).
Changes are numbered by the printed parent chain.

T1: human RXFP1 (human, UniProt Q9HBX9 1-757)
T1 sequence (looked up): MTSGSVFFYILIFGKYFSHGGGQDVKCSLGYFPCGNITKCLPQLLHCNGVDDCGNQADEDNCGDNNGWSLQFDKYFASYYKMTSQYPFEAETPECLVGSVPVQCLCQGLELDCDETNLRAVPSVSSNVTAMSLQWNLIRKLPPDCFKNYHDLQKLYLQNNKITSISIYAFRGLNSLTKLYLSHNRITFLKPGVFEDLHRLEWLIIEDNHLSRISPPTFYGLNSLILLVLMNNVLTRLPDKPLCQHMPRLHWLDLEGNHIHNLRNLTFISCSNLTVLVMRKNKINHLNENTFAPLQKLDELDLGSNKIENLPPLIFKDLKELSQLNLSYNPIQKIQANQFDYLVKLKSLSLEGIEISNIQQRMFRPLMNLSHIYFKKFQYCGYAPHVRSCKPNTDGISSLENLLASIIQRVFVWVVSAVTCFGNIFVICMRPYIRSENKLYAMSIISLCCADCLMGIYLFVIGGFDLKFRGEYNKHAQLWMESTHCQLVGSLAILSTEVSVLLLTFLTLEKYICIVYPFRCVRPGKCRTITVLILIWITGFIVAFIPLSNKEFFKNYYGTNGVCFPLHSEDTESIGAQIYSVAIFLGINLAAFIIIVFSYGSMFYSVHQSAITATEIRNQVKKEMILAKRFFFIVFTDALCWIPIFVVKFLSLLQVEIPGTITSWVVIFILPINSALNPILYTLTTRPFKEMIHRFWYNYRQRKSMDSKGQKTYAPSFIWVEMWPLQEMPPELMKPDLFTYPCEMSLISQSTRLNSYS

T2: mouse RXFP1 (mouse, UniProt Q6R6I7 1-758)
T2 sequence (looked up): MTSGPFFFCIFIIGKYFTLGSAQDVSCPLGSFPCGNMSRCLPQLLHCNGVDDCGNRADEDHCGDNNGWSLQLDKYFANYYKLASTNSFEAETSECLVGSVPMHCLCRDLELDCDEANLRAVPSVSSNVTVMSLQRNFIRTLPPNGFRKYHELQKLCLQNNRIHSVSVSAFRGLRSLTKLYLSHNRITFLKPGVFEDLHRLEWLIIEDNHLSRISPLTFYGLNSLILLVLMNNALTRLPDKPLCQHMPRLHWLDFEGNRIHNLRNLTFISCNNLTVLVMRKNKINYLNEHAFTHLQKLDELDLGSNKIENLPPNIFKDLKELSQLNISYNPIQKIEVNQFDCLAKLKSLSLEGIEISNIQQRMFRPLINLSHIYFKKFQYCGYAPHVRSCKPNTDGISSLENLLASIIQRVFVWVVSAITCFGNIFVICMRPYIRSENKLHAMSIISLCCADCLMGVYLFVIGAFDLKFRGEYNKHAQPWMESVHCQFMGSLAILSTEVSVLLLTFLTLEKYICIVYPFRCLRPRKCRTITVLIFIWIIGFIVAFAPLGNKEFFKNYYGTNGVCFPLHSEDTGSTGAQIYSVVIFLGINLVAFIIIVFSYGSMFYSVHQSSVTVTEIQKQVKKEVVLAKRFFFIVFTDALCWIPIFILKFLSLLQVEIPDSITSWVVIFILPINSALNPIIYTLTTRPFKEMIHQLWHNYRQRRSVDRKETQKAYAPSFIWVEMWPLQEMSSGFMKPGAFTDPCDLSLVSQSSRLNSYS

B1: RELAX0091 (Fc fusion)
chain 1: QLYSALANKCCHVGCTKRSLARFCAAAGGGGSGGGGSGGGGSGGGGSACPPCPAPEFEGGPSVFLFPPKPKDTLMISRTPEVTCVVVDVSHEDPEVKFNWYVDGVEVHNAKTKPREEQYNSTYRVVSVLTVLHQDWLNGKEYKCKVSNKALPASIEKTISKAKGQPREPQVYTLPPCREEMTKNQVSLWCLVKGFYPSDIAVEWESNGQPENNYKTTPPVLDSDGSFFLYSKLTVDKSRWQQGNVFSCSVMHEALHNHYTQKSLSLSPG
chain 2: SWMEEVIKLCGRELVRAQIAICGMSTWSAAAGGGGSGGGGSGGGGSGGGGSACPPCPAPEFEGGPSVFLFPPKPKDTLMISRTPEVTCVVVDVSHEDPEVKFNWYVDGVEVHNAKTKPREEQYNSTYRVVSVLTVLHQDWLNGKEYKCKVSNKALPASIEKTISKAKGQPREPQVCTLPPSREEMTKNQVSLSCAVKGFYPSDIAVEWESNGQPENNYKTTPPVLDSDGSFFLVSKLTVDKSRWQQGNVFSCSVMHEALHNHYTQKSLSLSPG
B2: RELAX0024 (Fc fusion)
chain 1: DKTHTCPPCPAPEFEGGPSVFLFPPKPKDTLMISRTPEVTCVVVDVSHEDPEVKFNWYVDGVEVHNAKTKPREEQYNSTYRVVSVLTVLHQDWLNGKEYKCKVSNKALPASIEKTISKAKGQPREPQVCTLPPSREEMTKNQVSLSCAVKGFYPSDIAVEWESNGQPENNYKTTPPVLDSDGSFFLVSKLTVDKSRWQQGNVFSCSVMHEALHNHYTQKSLSLSPGGGGGSGGGGSGGGGSGGGGGSQLYSALANKCCHVGCTKRSLARFC
chain 2: DKTHTCPPCPAPEFEGGPSVFLFPPKPKDTLMISRTPEVTCVVVDVSHEDPEVKFNWYVDGVEVHNAKTKPREEQYNSTYRVVSVLTVLHQDWLNGKEYKCKVSNKALPASIEKTISKAKGQPREPQVYTLPPCREEMTKNQVSLWCLVKGFYPSDIAVEWESNGQPENNYKTTPPVLDSDGSFFLYSKLTVDKSRWQQGNVFSCSVMHEALHNHYTQKSLSLSPGGGGGSGGGGSGGGGSGGGGGSSWMEEVIKLCGRELVRAQIAICGMSTWS
B3: RELAX0020 (Fc fusion)
chain 1: GGAGGACPPCPAPEFEGGPSVFLFPPKPKDTLMISRTPEVTCVVVDVSHEDPEVKFNWYVDGVEVHNAKTKPREEQYNSTYRVVSVLTVLHQDWLNGKEYKCKVSNKALPASIEKTISKAKGQPREPQVYTLPPCREEMTKNQVSLWCLVKGFYPSDIAVEWESNGQPENNYKTTPPVLDSDGSFFLYSKLTVDKSRWQQGNVFSCSVMHEALHNHYTQKSLSLSPGGGGGSGGGGSGGGGSGGGGGSSWMEEVIKLCGRELVRAQIAICGMSTWS
chain 2: GGAGGACPPCPAPEFEGGPSVFLFPPKPKDTLMISRTPEVTCVVVDVSHEDPEVKFNWYVDGVEVHNAKTKPREEQYNSTYRVVSVLTVLHQDWLNGKEYKCKVSNKALPASIEKTISKAKGQPREPQVCTLPPSREEMTKNQVSLSCAVKGFYPSDIAVEWESNGQPENNYKTTPPVLDSDGSFFLVSKLTVDKSRWQQGNVFSCSVMHEALHNHYTQKSLSLSPGGGGGSGGGGSGGGGSGGGGGSQLYSALANKCCHVGCTKRSLARFC
B4: RELAX0022 (Fc fusion)
chain 1: B3 chain 2 with C130Y
chain 2: B3 chain 1 with C135S
B5: RELAX0021 (Fc fusion)
chain 1: B3 chain 2 with C130Y, S147W, A149L, V188Y
chain 2: B3 chain 1 with C135S, W147S, L149A, Y188V
B6: RELAX0063 (Fc fusion)
chain 1: B2 chain 1 with C129Y, S134C, S146W, A148L, V187Y, F270A
chain 2: B2 chain 2 with Y129C, C134S, W146S, L148A, Y187V
B7: RELAX0072 (Fc fusion)
chain 1: B2 chain 1 with C129Y, S134C, S146W, A148L, V187Y, R269A
chain 2: B2 chain 2 with Y129C, C134S, W146S, L148A, Y187V
B8: RELAX0073 (Fc fusion)
chain 1: B2 chain 1 with C129Y, S134C, S146W, A148L, V187Y, R269Y
chain 2: B2 chain 2 with Y129C, C134S, W146S, L148A, Y187V
B9: RELAX0071 (Fc fusion)
chain 1: B2 chain 1 with C129Y, S134C, S146W, A148L, V187Y, R269Q
chain 2: B2 chain 2 with Y129C, C134S, W146S, L148A, Y187V
B10: RELAX0074 (Fc fusion)
chain 1: B2 chain 1 with C129Y, S134C, S146W, A148L, V187Y, R269S
chain 2: B2 chain 2 with Y129C, C134S, W146S, L148A, Y187V
B11: RELAX0069 (Fc fusion)
chain 1: B2 chain 1 with C129Y, S134C, S146W, A148L, V187Y, R269M
chain 2: B2 chain 2 with Y129C, C134S, W146S, L148A, Y187V
B12: RELAX0075 (Fc fusion)
chain 1: B2 chain 1 with C129Y, S134C, S146W, A148L, V187Y, F270I
chain 2: B2 chain 2 with Y129C, C134S, W146S, L148A, Y187V
B13: RELAX0070 (Fc fusion)
chain 1: B2 chain 1 with C129Y, S134C, S146W, A148L, V187Y, R269I
chain 2: B2 chain 2 with Y129C, C134S, W146S, L148A, Y187V

These binders were tested against T1, human RXFP1 (assay: cell-based or functional assay).

Row | EC50 hRXFP1 (M), cAMP HTRF assay [M] | Binder
1 | 5.88e-11 | B1
2 | 4.6e-11 | B2
3 | 4.41e-11 | B3
4 | 4.74e-11 | B4
5 | 8.27e-11 | B5

What follows are binders tested against T2, mouse RXFP1 (assay: cell-based or functional assay).

Row | EC50 mRXFP1 (M), cAMP HTRF assay [M] | Binder
6 | 2.88e-11 | B1
7 | 1.56e-11 | B2
8 | 2.79e-11 | B3
9 | 3.28e-11 | B4
10 | 4.14e-11 | B5

Each binder was assayed against T3, human RXFP2 (human, UniProt Q8WXD0 1-754) (assay: cell-based or functional assay).
T3 sequence (Q8WXD0 whole entry): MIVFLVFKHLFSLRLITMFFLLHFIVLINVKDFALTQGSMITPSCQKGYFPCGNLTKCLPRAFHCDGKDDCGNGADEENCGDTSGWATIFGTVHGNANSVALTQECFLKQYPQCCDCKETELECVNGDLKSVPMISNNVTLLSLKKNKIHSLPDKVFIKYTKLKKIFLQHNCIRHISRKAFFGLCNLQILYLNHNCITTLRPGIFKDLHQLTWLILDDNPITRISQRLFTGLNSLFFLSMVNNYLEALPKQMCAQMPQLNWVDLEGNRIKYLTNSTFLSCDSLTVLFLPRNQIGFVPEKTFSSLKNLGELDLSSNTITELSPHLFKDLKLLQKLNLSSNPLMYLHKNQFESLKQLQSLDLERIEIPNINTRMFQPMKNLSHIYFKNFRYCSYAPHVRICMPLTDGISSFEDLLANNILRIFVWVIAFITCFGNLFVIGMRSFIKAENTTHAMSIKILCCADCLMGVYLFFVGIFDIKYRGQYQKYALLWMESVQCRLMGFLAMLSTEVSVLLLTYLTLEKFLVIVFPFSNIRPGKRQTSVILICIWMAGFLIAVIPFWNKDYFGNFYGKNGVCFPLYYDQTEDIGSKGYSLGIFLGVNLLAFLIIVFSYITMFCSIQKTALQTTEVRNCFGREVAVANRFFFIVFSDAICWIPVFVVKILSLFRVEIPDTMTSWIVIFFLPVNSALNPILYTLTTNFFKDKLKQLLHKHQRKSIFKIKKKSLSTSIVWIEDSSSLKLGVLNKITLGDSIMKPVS

Row | EC50 hRXFP2 (M), cAMP HTRF assay [M] | Binder
11 | > 1.09e-07 | B1
12 | 4.26e-08 | B2
13 | 3.54e-08 | B3

Biological target: T1, human RXFP1
Test: cell-based or functional assay
Remark: another data set of the same source

Row | EC50 hRXFP1 (M), cAMP HTRF assay [M] | Binder
14 | 1.96e-10 | B6
15 | 8.53e-11 | B7
16 | 5.7e-11 | B8
17 | 6.87e-11 | B9
18 | 5.45e-11 | B10
19 | 5.76e-11 | B11
20 | 9.47e-11 | B12
21 | 6.67e-11 | B13

Biological target: T2, mouse RXFP1
Test: cell-based or functional assay
Remark: another data set of the same source

Row | EC50 mRXFP1 (M), cAMP HTRF assay [M] | Binder
22 | 4.46e-11 | B6
23 | 4.03e-11 | B7
24 | 4.15e-11 | B8
25 | 3.93e-11 | B9
26 | 4.53e-11 | B10
27 | 3.69e-11 | B11
28 | 6.14e-11 | B12
29 | 5.02e-11 | B13

Biological target: T3, human RXFP2
Test: cell-based or functional assay
Remark: another data set of the same source

Row | EC50 hRXFP2 (M), cAMP HTRF assay [M] | Binder
30 | > 1.38e-07 | B6
31 | > 2.3e-07 | B7
32 | 8.63e-08 | B8
33 | 1.15e-07 | B9
34 | 9.21e-08 | B10
35 | > 1.62e-07 | B11
36 | > 1.43e-07 | B12
37 | 1.07e-07 | B13
